test system: Escherichia coli TOP10; experiment: shrunken log2 fold change of peptide-encoding DNA abundance (4.5 h post-induction vs induction); higher = less antimicrobial activity (less host growth inhibition); conditions: time post-induction: 4.5 h; library: site-saturation at positions 5, 18, 19, 20
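Also: peptides expressed intracellularly from a pBAD plasmid library in pooled LB shake-flask culture, induced with 0.3% L-arabinose, DNA abundance read by NGS, three biological replicates, DESeq2 with apeglm shrinkage.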

| Sequence | shrunken log2 fold change |
| --- | --- |
| RRIRVRPPRLPRPRPRPTSLPRP | -0.262 |
| RRIRLRPPRLPRPRPRPVICPRP | -0.16 |
| RRIRRRPPRLPRPRPRPMDTPRP | 0.229 |
| RRIRNRPPRLPRPRPRPISSPRP | -0.0365 |
| RRIRHRPPRLPRPRPRPNQQPRP | -0.0412 |
| RRIRKRPPRLPRPRPRPKFPPRP | 0.134 |
| RRIRQRPPRLPRPRPRPERAPRP | 0.53 |
| RRIRPRPPRLPRPRPRPEHDPRP | -0.00589 |
| RRIRNRPPRLPRPRPRPMFKPRP | -0.386 |
| RRIRYRPPRLPRPRPRPLHHPRP | -1.14 |
| RRIRQRPPRLPRPRPRPCMIPRP | -0.0196 |
| RRIRRRPPRLPRPRPRPQQTPRP | -0.0146 |
| RRIRYRPPRLPRPRPRPINLPRP | -0.145 |
| RRIRLRPPRLPRPRPRPNEIPRP | 0.0349 |
| RRIRWRPPRLPRPRPRPYDYPRP | -0.262 |
| RRIRPRPPRLPRPRPRPWVTPRP | -0.00388 |
| RRIRKRPPRLPRPRPRPNTPPRP | 0.221 |
| RRIRFRPPRLPRPRPRPNLEPRP | -0.257 |
| RRIRTRPPRLPRPRPRPNIAPRP | -0.239 |
| RRIRDRPPRLPRPRPRPDPFPRP | -0.00228 |
| RRIRARPPRLPRPRPRPSSEPRP | 0.271 |
| RRIRCRPPRLPRPRPRPMAIPRP | -0.132 |

| Sequence | shrunken log2 fold change |
| --- | --- |
| RRIRKRPPRLPRPRPRPKSYPRP | -0.177 |
| RRIRNRPPRLPRPRPRPFQLPRP | -0.228 |
| RRIRWRPPRLPRPRPRPTFQPRP | 0.131 |
| RRIRGRPPRLPRPRPRPPLRPRP | 0.796 |
| RRIRGRPPRLPRPRPRPKLQPRP | 0.991 |
| RRIRCRPPRLPRPRPRPNRIPRP | -0.111 |
| RRIRERPPRLPRPRPRPPRTPRP | 0.316 |
| RRIRHRPPRLPRPRPRPEPVPRP | 0.0556 |
| RRIRWRPPRLPRPRPRPPSIPRP | 0.357 |
| RRIRWRPPRLPRPRPRPEKEPRP | 0.0112 |
| RRIRYRPPRLPRPRPRPKDYPRP | -0.787 |
| RRIRNRPPRLPRPRPRPCRVPRP | -0.0128 |
| RRIRKRPPRLPRPRPRPYPQPRP | 0.0235 |
| RRIRHRPPRLPRPRPRPDQDPRP | -0.0366 |
| RRIRCRPPRLPRPRPRPAIAPRP | 0.165 |
| RRIRERPPRLPRPRPRPRCHPRP | -0.464 |
| RRIRSRPPRLPRPRPRPALCPRP | 0.292 |
| RRIRGRPPRLPRPRPRPWWGPRP | -0.0457 |
| RRIRSRPPRLPRPRPRPWIGPRP | -0.0735 |
| RRIRVRPPRLPRPRPRPALCPRP | 0.555 |
| RRIRSRPPRLPRPRPRPNGQPRP | 0.0535 |
| RRIRRRPPRLPRPRPRPDLIPRP | 0.0201 |

| Sequence | shrunken log2 fold change |
| --- | --- |
| RRIRYRPPRLPRPRPRPAYIPRP | -0.00172 |
| RRIRRRPPRLPRPRPRPPHSPRP | 0.916 |
| RRIRDRPPRLPRPRPRPVWVPRP | -0.203 |
| RRIRWRPPRLPRPRPRPEMNPRP | 0.753 |
| RRIRTRPPRLPRPRPRPDFVPRP | -0.106 |
| RRIRPRPPRLPRPRPRPANYPRP | 0.0679 |
| RRIRERPPRLPRPRPRPGASPRP | 0.075 |
| RRIRLRPPRLPRPRPRPSWWPRP | 1.77 |
| RRIRERPPRLPRPRPRPKIPPRP | -0.136 |
| RRIRERPPRLPRPRPRPNQDPRP | 0.169 |
| RRIRRRPPRLPRPRPRPTGFPRP | 0.728 |
| RRIRMRPPRLPRPRPRPIFGPRP | 0.0873 |
| RRIRFRPPRLPRPRPRPLGGPRP | -0.235 |
| RRIRYRPPRLPRPRPRPGKMPRP | 0.00758 |
| RRIRPRPPRLPRPRPRPNKHPRP | -0.374 |
| RRIRYRPPRLPRPRPRPCHTPRP | -0.141 |
| RRIRPRPPRLPRPRPRPNSCPRP | -0.241 |
| RRIRNRPPRLPRPRPRPKMHPRP | -0.0913 |
| RRIRRRPPRLPRPRPRPSKVPRP | -0.0758 |
| RRIRCRPPRLPRPRPRPNKFPRP | -0.472 |
| RRIRSRPPRLPRPRPRPYRSPRP | -0.47 |
| RRIRNRPPRLPRPRPRPPNAPRP | 0.313 |

| Sequence | shrunken log2 fold change |
| --- | --- |
| RRIRDRPPRLPRPRPRPVKCPRP | -0.117 |
| RRIRIRPPRLPRPRPRPCCFPRP | -0.725 |
| RRIRNRPPRLPRPRPRPQWMPRP | -0.0995 |
| RRIRRRPPRLPRPRPRPLACPRP | 0.491 |
| RRIRHRPPRLPRPRPRPPDEPRP | 0.43 |
| RRIRERPPRLPRPRPRPEMDPRP | 0.125 |
| RRIRHRPPRLPRPRPRPAYTPRP | -0.482 |
| RRIRMRPPRLPRPRPRPNKFPRP | 0.0721 |
| RRIRERPPRLPRPRPRPQGIPRP | -0.044 |
| RRIRARPPRLPRPRPRPFCWPRP | 0.401 |
| RRIRDRPPRLPRPRPRPMFYPRP | -0.305 |
| RRIRARPPRLPRPRPRPYVDPRP | -0.16 |
| RRIRARPPRLPRPRPRPRQIPRP | 0.313 |
| RRIRCRPPRLPRPRPRPIFPPRP | 0.247 |
| RRIRMRPPRLPRPRPRPPHGPRP | 1.06 |
| RRIRGRPPRLPRPRPRPCGWPRP | 1.34 |
| RRIRVRPPRLPRPRPRPYKQPRP | -0.00648 |
| RRIRWRPPRLPRPRPRPENKPRP | -0.13 |
| RRIRRRPPRLPRPRPRPEHNPRP | 0.183 |
| RRIRKRPPRLPRPRPRPAWPPRP | 0.675 |
| RRIRVRPPRLPRPRPRPGTYPRP | -0.166 |
| RRIRGRPPRLPRPRPRPASLPRP | 0.472 |

| Sequence | shrunken log2 fold change |
| --- | --- |
| RRIRMRPPRLPRPRPRPTWAPRP | 0.192 |
| RRIRTRPPRLPRPRPRPLFSPRP | -0.717 |
| RRIRCRPPRLPRPRPRPHHTPRP | -1.04 |
| RRIRCRPPRLPRPRPRPRTGPRP | 0.148 |
| RRIRWRPPRLPRPRPRPQSCPRP | 0.0975 |
| RRIRMRPPRLPRPRPRPKLGPRP | 0.597 |
| RRIRPRPPRLPRPRPRPWWYPRP | -0.121 |
| RRIRLRPPRLPRPRPRPMIEPRP | -0.00289 |
| RRIRGRPPRLPRPRPRPIIFPRP | 0.437 |
| RRIRERPPRLPRPRPRPISAPRP | -0.214 |
| RRIRSRPPRLPRPRPRPYDKPRP | 0.0507 |
| RRIRERPPRLPRPRPRPKCVPRP | 0.0364 |
| RRIRPRPPRLPRPRPRPKKFPRP | 0.0281 |
| RRIRWRPPRLPRPRPRPRYAPRP | 0.32 |
| RRIRKRPPRLPRPRPRPYFNPRP | -0.593 |
| RRIRTRPPRLPRPRPRPKDNPRP | -0.5 |
| RRIRIRPPRLPRPRPRPEHNPRP | -0.505 |
| RRIRIRPPRLPRPRPRPEDEPRP | 0.0112 |
| RRIRIRPPRLPRPRPRPQYAPRP | 0.0303 |
| RRIRERPPRLPRPRPRPAEDPRP | 0.0107 |
| RRIRLRPPRLPRPRPRPGKQPRP | 0.0284 |

Reference: the supplement of paper PMC9112550, “Optimization of the antimicrobial peptide Bac7 by deep mutational scanning” (BMC Biology, 2022)
